Square brackets hold non-standard residues; d marks the D form. Ends that are not written are not given here. Aib = CC(C)(N)C(=O)O
B1: Compound No. 11 (peptide)
peptide: Y[Aib]EGTFTSDYSIYLEKEAQKEFVNWLLAGGPSSGAPPPSK-NH2
modifications: N-terminus assumed
SMILES: CC[C@H](C)[C@H](NC(=O)[C@H](CO)NC(=O)[C@H](Cc1ccc(O)cc1)NC(=O)[C@H](CC(=O)O)NC(=O)[C@H](CO)NC(=O)[C@@H](NC(=O)[C@H](Cc1ccccc1)NC(=O)[C@@H](NC(=O)CNC(=O)[C@H](CCC(=O)O)NC(=O)C(C)(C)NC(=O)[C@@H](N)Cc1ccc(O)cc1)[C@@H](C)O)[C@@H](C)O)C(=O)N[C@@H](Cc1ccc(O)cc1)C(=O)N[C@@H](CC(C)C)C(=O)N[C@@H](CCC(=O)O)C(=O)N[C@@H](CCCCN)C(=O)N[C@@H](CCC(=O)O)C(=O)N[C@@H](C)C(=O)N[C@@H](CCC(N)=O)C(=O)N[C@@H](CCCCN)C(=O)N[C@@H](CCC(=O)O)C(=O)N[C@@H](Cc1ccccc1)C(=O)N[C@H](C(=O)N[C@@H](CC(N)=O)C(=O)N[C@@H](Cc1c[nH]c2ccccc12)C(=O)N[C@@H](CC(C)C)C(=O)N[C@@H](CC(C)C)C(=O)N[C@@H](C)C(=O)NCC(=O)NCC(=O)N1CCC[C@H]1C(=O)N[C@@H](CO)C(=O)N[C@@H](CO)C(=O)NCC(=O)N[C@@H](C)C(=O)N1CCC[C@H]1C(=O)N1CCC[C@H]1C(=O)N1CCC[C@H]1C(=O)N[C@@H](CO)C(=O)N[C@@H](CCCCN)C(N)=O)C(C)C
B2: Compound No. 12 (peptide)
peptide: Y[Aib]EGTFTSDYSIYLE[Aib]EAAKEFVNWLLAGGPSSGAPPPSK-NH2
modifications: N-terminus assumed
SMILES: CC[C@H](C)[C@H](NC(=O)[C@H](CO)NC(=O)[C@H](Cc1ccc(O)cc1)NC(=O)[C@H](CC(=O)O)NC(=O)[C@H](CO)NC(=O)[C@@H](NC(=O)[C@H](Cc1ccccc1)NC(=O)[C@@H](NC(=O)CNC(=O)[C@H](CCC(=O)O)NC(=O)C(C)(C)NC(=O)[C@@H](N)Cc1ccc(O)cc1)[C@@H](C)O)[C@@H](C)O)C(=O)N[C@@H](Cc1ccc(O)cc1)C(=O)N[C@@H](CC(C)C)C(=O)N[C@@H](CCC(=O)O)C(=O)NC(C)(C)C(=O)N[C@@H](CCC(=O)O)C(=O)N[C@@H](C)C(=O)N[C@@H](C)C(=O)N[C@@H](CCCCN)C(=O)N[C@@H](CCC(=O)O)C(=O)N[C@@H](Cc1ccccc1)C(=O)N[C@H](C(=O)N[C@@H](CC(N)=O)C(=O)N[C@@H](Cc1c[nH]c2ccccc12)C(=O)N[C@@H](CC(C)C)C(=O)N[C@@H](CC(C)C)C(=O)N[C@@H](C)C(=O)NCC(=O)NCC(=O)N1CCC[C@H]1C(=O)N[C@@H](CO)C(=O)N[C@@H](CO)C(=O)NCC(=O)N[C@@H](C)C(=O)N1CCC[C@H]1C(=O)N1CCC[C@H]1C(=O)N1CCC[C@H]1C(=O)N[C@@H](CO)C(=O)N[C@@H](CCCCN)C(N)=O)C(C)C

Tests used:
[1] = molecular target: human glucagon-like peptide-1 receptor (human, UniProt P43220); test: cell-based or functional assay
[2] = molecular target: T1, human glucose-dependent insulinotropic peptide receptor (human, UniProt P48546); test: cell-based or functional assay
T1 sequence: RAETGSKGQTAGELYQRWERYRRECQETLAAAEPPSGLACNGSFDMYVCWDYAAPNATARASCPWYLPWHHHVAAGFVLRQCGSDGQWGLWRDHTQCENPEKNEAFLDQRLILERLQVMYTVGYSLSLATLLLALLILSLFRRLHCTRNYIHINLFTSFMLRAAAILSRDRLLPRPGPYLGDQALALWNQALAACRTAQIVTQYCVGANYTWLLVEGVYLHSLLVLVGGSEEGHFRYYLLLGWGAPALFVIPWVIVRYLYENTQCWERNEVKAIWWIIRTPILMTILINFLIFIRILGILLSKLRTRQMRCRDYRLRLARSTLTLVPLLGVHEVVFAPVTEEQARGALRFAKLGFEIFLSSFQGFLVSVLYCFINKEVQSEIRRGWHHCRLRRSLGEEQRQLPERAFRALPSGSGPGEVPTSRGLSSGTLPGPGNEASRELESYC

| Binder | Activity for human GLP-1R (EC50 nM), cAMP HTRF [1] | Activity for human GIPR (EC50 nM), cAMP HTRF [2] |
| --- | --- | --- |
| B1 | 0.08 nM | 0.014 nM |
| B2 | 0.013 nM | 0.081 nM |

— patent publication US20220168396A1, “MULTI-RECEPTOR AGONIST AND MEDICAL USE THEREOF” (published 2022)
